As usually defined, the IC50 is the concentration that inhibits the measured activity by half. One may read the Ki as a measure of affinity in units of concentration, obtained from inhibition or displacement. The low end stands for a stronger hold on the target, the high end for a looser hold on the target.

These results are taken from patent publication US20060062729A1, “Enhanced ligand binding to neurotensin receptors” (priority 2004, published 2006).

Non-standard residues stand in square brackets, D forms with d. Residues, ends and D or L forms follow the SMILES beside them. *: point of attachment. PhAc = O=C(Cc1ccccc1)*

In one test the target is T1, bombesin receptor (Homo sapiens, UniProt P30550).
T1 construct: endogenous in cells; host or cells: PC3 cells (ATCC)
T1 sequence (P30550 whole entry): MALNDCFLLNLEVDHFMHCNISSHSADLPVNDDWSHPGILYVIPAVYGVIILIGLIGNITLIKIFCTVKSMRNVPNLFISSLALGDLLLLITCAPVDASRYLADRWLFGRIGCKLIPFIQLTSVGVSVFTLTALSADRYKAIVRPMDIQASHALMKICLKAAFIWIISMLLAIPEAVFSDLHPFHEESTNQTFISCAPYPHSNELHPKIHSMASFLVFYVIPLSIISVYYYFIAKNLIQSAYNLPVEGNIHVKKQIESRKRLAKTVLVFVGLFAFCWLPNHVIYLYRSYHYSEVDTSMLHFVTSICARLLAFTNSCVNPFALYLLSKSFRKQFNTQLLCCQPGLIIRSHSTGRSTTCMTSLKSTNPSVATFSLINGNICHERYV
Kind of test: ^125I-[Nle^14]-bombesin binding to PC3 cells. Particulars: 37° C.

Test [1] addresses T2, NTR1 (Homo sapiens, UniProt P30989). Kind of test: ^125I-NT binding to isolated PC3 cell membranes. Further details: Ab-NTR1 detected two major bands in extracts of PC3 cells, the parent protein of 50 kDa; endogenous in cells; host or cells: PC3 cells (ATCC).
The next test has as its target T3, 5-LOX (Homo sapiens, UniProt P09917).
T3 sequence (P09917 1-674): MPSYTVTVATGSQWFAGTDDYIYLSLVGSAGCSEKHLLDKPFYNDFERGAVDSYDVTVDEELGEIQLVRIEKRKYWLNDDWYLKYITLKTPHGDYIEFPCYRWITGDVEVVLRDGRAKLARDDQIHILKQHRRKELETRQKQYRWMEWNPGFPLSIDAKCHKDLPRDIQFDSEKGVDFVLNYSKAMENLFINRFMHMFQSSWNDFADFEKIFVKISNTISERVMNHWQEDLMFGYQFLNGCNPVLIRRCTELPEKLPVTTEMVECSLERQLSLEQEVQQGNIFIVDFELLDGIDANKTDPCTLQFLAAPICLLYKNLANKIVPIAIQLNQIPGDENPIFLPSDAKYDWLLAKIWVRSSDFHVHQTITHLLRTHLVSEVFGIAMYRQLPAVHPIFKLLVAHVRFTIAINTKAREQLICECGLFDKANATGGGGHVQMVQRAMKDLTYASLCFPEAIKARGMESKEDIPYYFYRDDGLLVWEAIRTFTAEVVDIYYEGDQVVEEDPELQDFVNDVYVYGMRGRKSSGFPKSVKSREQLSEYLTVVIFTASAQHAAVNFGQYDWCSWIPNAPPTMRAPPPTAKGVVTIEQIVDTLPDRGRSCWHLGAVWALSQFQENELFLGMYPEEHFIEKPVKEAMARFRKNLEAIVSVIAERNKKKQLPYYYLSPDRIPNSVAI
Particulars: range of reported values, various blood cell systems; cited from earlier work.

Test [2] deals with T2, NTR1. The test is described as follows: ^125I-NT binding to PC3 cells.
Test [3] addresses T4, vasopressin (V1a) receptor (Homo sapiens, UniProt P37288).
T4 construct: endogenous in cells; host or cells: PC3 cells (ATCC)
Kind of test: ^125I-HOLVA binding to PC3 cells.

The next test relates to PC3 cells. Kind of test: Ionomycin-stimulated IP formation in PC3 cells. The class given is cell-based.
For test [4], the target named is bombesin receptor of PC3 cells. Kind of test: 125I-ligand binding to PC3 cells, 37 C, with 12 µM MK886.
Sequence of bombesin receptor of PC3 cells (P30550 whole entry): as the sequence (P30550 whole entry) above
In test [5] the target is bombesin receptor of PC3 cells. Kind of test: 125I-ligand binding to PC3 cells, 37 C, with 12 µM Rev-5901.
Test [6] addresses bombesin receptor of PC3 cells. The test is described as follows: 125I-ligand binding to PC3 cells, 37 C, with 60 µM NDGA.
In test [7] the target is bombesin receptor of PC3 cells. The test is described as follows: 125I-ligand binding to PC3 cells, 37 C, with 60 µM Rev-5901.
Test [8] has as its target bombesin receptor of PC3 cells. Kind of test: 125I-ligand binding to PC3 cells.
The target of test [9] is bombesin receptor of PC3 cells. Kind of test: 125I-ligand binding to PC3 cells, 37 C, with 60 µM AA-861.
In test [10] the target is bombesin receptor of PC3 cells.
Test [11] deals with bombesin receptor of PC3 cells. Kind of test: 125I-ligand binding to PC3 cells with 12 µM phloretin.
The target in test [12] is bombesin receptor of PC3 cells. Kind of test: 125I-ligand binding to PC3 cells with 12 µM verapamil.
In test [13] the target is bombesin receptor of PC3 cells. Kind of test: 125I-ligand binding to PC3 cells with 60 µM NIF.
Test [14] concerns the target bombesin receptor of PC3 cells. Kind of test: 125I-ligand binding to PC3 cells, 37 C, with 60 µM MK886.
Test [15] deals with bombesin receptor of PC3 cells. The test is described as follows: Scatchard analysis, PC3 cells.
For test [16], the target named is bombesin receptor of PC3 cells. The test is described as follows: 125I-ligand binding to PC3 cells with 60 µM verapamil.
In test [17] the target is bombesin receptor of PC3 cells. Kind of test: 125I-ligand binding to PC3 cells with 60 µM SKF-96365.
Test [18] has as its target bombesin receptor of PC3 cells. The test is described as follows: 125I-ligand binding to PC3 cells with 60 µM phloretin.
Test [19] has as its target bombesin receptor of PC3 cells. Kind of test: 125I-ligand binding to PC3 cells with 12 µM NIF.
Test [20] deals with bombesin receptor of PC3 cells. The test is described as follows: 125I-ligand binding to PC3 cells, 37 C, with 12 µM NDGA.
Test [21] deals with bombesin receptor of PC3 cells. Kind of test: 125I-ligand binding to PC3 cells with 12 µM SKF-96365.
For test [22], the target named is bombesin receptor of PC3 cells. Kind of test: 125I-ligand binding to PC3 cells, 37 C, with 12 µM AA-861.
In test [23] the target is neurotensin receptor NTR1 of PC3 cells (human) (UniProt P30989). The test is described as follows: UV crosslinking to PC3 cells with 50 µM NDGA, immunoprecipitation with antiserum to NTR1.
Sequence of neurotensin receptor NTR1 of PC3 cells (human) (P30989 whole entry): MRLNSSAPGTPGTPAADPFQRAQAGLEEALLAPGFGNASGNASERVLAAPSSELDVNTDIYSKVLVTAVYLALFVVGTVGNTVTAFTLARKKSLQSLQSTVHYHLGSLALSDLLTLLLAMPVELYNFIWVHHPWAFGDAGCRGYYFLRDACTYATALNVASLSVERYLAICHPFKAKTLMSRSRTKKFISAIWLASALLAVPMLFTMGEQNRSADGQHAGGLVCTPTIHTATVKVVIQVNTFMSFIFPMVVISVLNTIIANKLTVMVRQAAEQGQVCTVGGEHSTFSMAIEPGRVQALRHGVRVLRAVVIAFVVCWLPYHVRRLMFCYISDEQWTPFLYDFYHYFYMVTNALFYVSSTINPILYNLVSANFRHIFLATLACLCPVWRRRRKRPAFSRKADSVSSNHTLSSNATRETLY
Test [24] shares this target. The test is described as follows: UV crosslinking to PC3 cells with 50 µM MK886, immunoprecipitation with antiserum to NTR1.
For test [25] the target is unchanged. Kind of test: UV crosslinking to PC3 cells with verapamil, immunoprecipitation with Ab-NTR1.
Test [26] has the same target. Kind of test: UV crosslinking to PC3 cells with NIF, immunoprecipitation with Ab-NTR1.
For test [27] the target is unchanged. The test is described as follows: UV crosslinking to PC3 cells with phloretin, immunoprecipitation with Ab-NTR1.

T2 sequence (P30989 whole entry): as above
T4 sequence (P37288 whole entry): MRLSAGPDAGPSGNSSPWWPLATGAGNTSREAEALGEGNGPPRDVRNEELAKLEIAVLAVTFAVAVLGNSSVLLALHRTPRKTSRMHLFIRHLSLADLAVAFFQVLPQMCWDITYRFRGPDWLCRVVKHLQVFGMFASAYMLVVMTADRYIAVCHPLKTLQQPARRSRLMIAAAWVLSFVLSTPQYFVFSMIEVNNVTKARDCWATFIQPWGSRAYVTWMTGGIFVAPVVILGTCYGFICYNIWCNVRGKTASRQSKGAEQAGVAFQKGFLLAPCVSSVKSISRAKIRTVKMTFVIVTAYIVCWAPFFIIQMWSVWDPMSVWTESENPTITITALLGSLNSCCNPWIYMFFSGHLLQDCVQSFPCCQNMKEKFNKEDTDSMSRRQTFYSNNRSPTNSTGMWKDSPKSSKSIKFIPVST

In the case of `CC1=C(C)C(=O)C(CCCCC#CCCCC#CCO)=C(C)C1=O` [AA861], the “Specific Binding (% control) of ^125I-[Nle14]-bombesin” value at bombesin receptor (12 μM LOX blocker) worked out at 112 ± 4 % control; at bombesin receptor (60 μM LOX blocker), 135 ± 6 % control. Besides, the “Specific NT-Binding (% control)” value at NTR1 [1] (10 μM LOX pathway blocker) is 107 ± 4 % control; at NTR1 [1] (25 μM LOX pathway blocker), 109 ± 4 % control; at NTR1 [1] (75 μM LOX pathway blocker), 110 ± 5 % control. Also, the IC50 on 5-LOX was 100 to 2000 nM.
Consider `CCNC(=O)[C@H]1O[C@@H](n2cnc3c(N)nc(NCCc4ccc(CCC(=O)O)cc4)nc32)[C@H](O)[C@@H]1O` [CGS21683], for which, at NTR1 [2] (LOX blockers), the “NT Binding Efficacy % increase” value worked out at 228 % increase. In addition, the IC50 on 5-LOX is 10 to 1000 nM.
On to `CCCCCC#CCC#CCC#CCC#CCCCC(=O)O` [ETYA, 5,8,11,14-eicosatetraynoic acid], for which the IC50 on 5-LOX is 6000 to 50000 nM.
Take `CCOc1ccc(C[C@@H](NC(=O)Cc2ccccc2)C(=O)N[C@@H](Cc2ccccc2)C(=O)N[C@@H](CCC(N)=O)C(=O)N[C@@H](CC(N)=O)C(=O)N[C@@H](CCCCN)C(=O)N2CCC[C@H]2C(=O)N[C@@H](CCCNC(=N)N)C(N)=O)cc1` [^125I-HOLVA, des-Gly-[Phaa1, D-Tyr(Et)2, Lys6, Arg8]-vasopressin] (PhAc-[dY](Et)FQNKPR-NH2; N-terminus and C-terminus assumed): the “Specific Binding (% of total)” value in test [3] (10^5 cpm ^125I-ligand) is given as 77 % of total. In [3] (Scatchard analysis), this compound gave a Bmax of 156 ± 12 fmol/mg.
As to `C[C@H](CCC(=O)O)C[C@H](C)C[C@H](C)C(=O)/C=C(\O)[C@H](C)C[C@H](C)C/C=C/[C@@H](C)[C@@H](O)[C@@H](C)[C@@H](O)C[C@@H]1CC[C@@](C)([C@H]2CC[C@@](C)([C@@H](C)O)O2)O1` [ionomycin], the “reversal of NIF enhancement of NT binding” value at NTR1 [2] (20 μM ionomycin) is reported as “not reversed”. For the same compound, the “IP formation (% control)” value is 139±6% with PC3 cells (2 μM ionomycin), 157±5 % control with PC3 cells (10 μM ionomycin), 324±14% in the test on PC3 cells (20 μM ionomycin) and 322±11 % control with PC3 cells (25 μM ionomycin). For the same compound, the “share of the NT response reproduced” value in the test on PC3 cells (IP formation) is ~63%.
As to [Tyr^4, Nle^14]-bombesin (peptide), the Specific Binding (% control) in [4] stood at 106 % control; in [5] it was 107 % control; in test [6] it was 127 % control; in test [7] it was 119 % control; in test [9], 135 % control; in test [11], 104 % control. Moreover, the Specific Binding (% control) in [12] was 104 % control; in [13], 119 % control; in test [14], 125 % control; in test [16], 104 % control; in test [17] it was 106 % control; in test [18], 111 % control. The Specific Binding (% control) in test [19] worked out at 108 % control; in [20], 110 % control; in [21], 99 % control; in test [22] it was 112 % control. In [8], the Specific Binding (% of total) was 95 % of total. The Ki in test [10] was found to be 0.6 nM. For the same compound, the Bmax in test [15] came out at 1020 fmol/mg.
As to ^125I-[4-azido-Phe^6]-NT (peptide), the fold increase in radioactivity associated with NTR1 stood at 2.6 fold in test [23]; 2.7 fold in [24]; 1.5 fold in test [25]; 2.8 fold in test [26]; 1.8 fold in test [27].
